Consider two molecules from article PMC12422189, “Molecular exaptation by the integrin αI domain” (Science Advances, 2025).

Test [1] deals with integrin αLβ2 with the αL internal ligand IEGT replaced by VDGT (UniProt P20701). In words: flow cytometry on cells; HEK293T cells transfected with αL variants and β2; 20 mM tris-HCl pH 7.4, 150 mM NaCl, 1 mM MgCl2 + 1 mM MnCl2; purified His-tagged ICAM-1 ectodomain at 20 μg/ml, 1 hour at 37°C; read with iFluor 647 anti-His tag antibody; percent positive cells normalized to wild type. On the technique in general: A flow cytometer gives signals particle by particle.

For test [2], the target named is T1, Fc-tagged E-cadherin ectodomain (UniProt P12830 155-698).
T1 construct: Fc tag amplified from Addgene plasmid 145164; E-cadherin insert a gift from B. Gumbiner; Captured on Protein A biosensors by the Fc; also called Human Fc-tagged E-cadherin ectodomain; source: ExpiCHO, secreted, purified (HiTrap Protein G, Superdex 200); not shown: Fc (human), C-terminal, kept
T1 sequence (looked up): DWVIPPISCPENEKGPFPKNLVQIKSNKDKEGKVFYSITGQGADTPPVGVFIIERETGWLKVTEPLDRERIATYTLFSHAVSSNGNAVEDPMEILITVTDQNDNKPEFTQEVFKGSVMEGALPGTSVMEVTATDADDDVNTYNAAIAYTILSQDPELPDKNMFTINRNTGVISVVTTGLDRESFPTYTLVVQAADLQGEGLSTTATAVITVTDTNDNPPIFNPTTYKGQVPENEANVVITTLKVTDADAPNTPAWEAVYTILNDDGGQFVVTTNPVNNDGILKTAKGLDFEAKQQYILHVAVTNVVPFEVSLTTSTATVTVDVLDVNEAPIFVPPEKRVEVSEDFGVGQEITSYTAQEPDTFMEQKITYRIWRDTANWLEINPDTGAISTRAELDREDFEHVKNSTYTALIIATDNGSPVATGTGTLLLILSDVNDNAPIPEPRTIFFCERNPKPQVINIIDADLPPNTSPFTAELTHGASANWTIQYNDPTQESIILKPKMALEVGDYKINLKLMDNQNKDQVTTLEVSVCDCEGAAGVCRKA
In words: BLI; Octet RED, 25°C; Fc-tagged E-cadherin ectodomain loaded on Protein A biosensors; αEβ7 in solution, two-fold series 500 to 16.125 nM; activating buffer with 0.1% BSA and 0.02% Tween 20; 1:1 model, global fit of three replicates. As to conditions: both partners purified. In general terms: In BLI a coated tip is dipped into the sample, and binding shifts an interference pattern.

integrin αLβ2 with the αL internal ligand IEGT replaced by VDGT, sequence (P20701 26-1170, chain 1 of 2): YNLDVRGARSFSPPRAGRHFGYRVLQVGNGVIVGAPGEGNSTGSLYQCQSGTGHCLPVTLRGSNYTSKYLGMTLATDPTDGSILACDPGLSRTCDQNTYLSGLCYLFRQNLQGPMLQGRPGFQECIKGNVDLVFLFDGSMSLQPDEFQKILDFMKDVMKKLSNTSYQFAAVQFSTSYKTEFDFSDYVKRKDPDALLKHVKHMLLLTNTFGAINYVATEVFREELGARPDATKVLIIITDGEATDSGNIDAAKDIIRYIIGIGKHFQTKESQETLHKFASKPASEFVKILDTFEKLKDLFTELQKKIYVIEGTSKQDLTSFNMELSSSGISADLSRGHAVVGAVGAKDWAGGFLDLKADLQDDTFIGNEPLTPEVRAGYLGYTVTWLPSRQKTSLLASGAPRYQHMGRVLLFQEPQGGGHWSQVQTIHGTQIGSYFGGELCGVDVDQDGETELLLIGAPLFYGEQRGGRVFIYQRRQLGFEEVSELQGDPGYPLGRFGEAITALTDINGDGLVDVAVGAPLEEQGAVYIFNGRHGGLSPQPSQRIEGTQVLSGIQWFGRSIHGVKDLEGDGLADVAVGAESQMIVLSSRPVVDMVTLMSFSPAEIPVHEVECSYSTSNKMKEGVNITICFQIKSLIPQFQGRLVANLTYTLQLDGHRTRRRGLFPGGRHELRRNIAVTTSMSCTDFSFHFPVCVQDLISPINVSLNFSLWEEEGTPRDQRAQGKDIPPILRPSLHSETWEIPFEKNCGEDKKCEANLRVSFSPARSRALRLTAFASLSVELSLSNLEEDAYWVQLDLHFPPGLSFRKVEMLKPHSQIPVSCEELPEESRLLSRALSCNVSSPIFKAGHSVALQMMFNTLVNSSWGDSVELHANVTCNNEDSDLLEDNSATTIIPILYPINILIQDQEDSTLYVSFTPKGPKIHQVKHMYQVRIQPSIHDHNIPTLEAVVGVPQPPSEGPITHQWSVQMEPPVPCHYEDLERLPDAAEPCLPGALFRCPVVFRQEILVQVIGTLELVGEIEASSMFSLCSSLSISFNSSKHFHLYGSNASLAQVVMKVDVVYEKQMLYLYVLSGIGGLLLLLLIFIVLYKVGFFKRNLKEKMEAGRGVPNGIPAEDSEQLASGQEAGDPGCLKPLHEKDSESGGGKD
integrin αLβ2 with the αL internal ligand IEGT replaced by VDGT, sequence (P05107 23-769, chain 2 of 2, further chain): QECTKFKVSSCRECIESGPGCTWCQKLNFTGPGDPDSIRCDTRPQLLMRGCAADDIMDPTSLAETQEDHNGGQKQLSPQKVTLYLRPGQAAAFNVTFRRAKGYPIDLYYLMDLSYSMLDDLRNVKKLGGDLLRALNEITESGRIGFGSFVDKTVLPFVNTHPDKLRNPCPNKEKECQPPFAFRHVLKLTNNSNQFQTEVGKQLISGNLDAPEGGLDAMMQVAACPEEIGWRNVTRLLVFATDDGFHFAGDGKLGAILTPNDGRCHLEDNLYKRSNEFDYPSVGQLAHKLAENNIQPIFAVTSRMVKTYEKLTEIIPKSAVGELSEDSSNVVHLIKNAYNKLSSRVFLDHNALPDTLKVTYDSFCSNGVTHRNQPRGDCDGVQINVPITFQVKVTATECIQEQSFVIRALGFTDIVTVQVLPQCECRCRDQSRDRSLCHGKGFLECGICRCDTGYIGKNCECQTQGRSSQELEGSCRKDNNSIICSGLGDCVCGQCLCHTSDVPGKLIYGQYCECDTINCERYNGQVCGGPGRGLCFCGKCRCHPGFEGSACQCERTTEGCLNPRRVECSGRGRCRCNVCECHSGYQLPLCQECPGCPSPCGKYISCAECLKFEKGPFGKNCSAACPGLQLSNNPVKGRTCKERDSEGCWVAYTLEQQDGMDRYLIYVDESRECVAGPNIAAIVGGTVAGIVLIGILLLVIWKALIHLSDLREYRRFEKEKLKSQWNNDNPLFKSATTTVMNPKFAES

For “intercellular adhesion molecule-1 (ICAM-1) ectodomain, His-tagged (from UniProt P05362 28-480) (ligand)”, in test [1], the ligand binding, percent of wild type worked out at 60%.

B1: integrin αEβ7 (as used for biolayer interferometry) (complex)
chain 1: FNVDVARPWLTPKGGAPFVLSSLLHQDPSTNQTWLLVTSPRTKRTPGPLHRCSLVQDEILCHPVEHVPIPKGRHRGVTVVRSHHGVLICIQVLVRRPHSLSSELTGTCSLLGPDLRPQAQANFFDLENLLDPDARVDTGDCYSNKEGGGEDDVNTARQRRALEKEEEEDKEEEEDEEEEEAGTEIAIILDGSGSIDPPDFQRAKDFISNMMRNFYEKCFECNFALVQYGGVIQTEFDLRDSQDVMASLARVQNITQVGSVTKTASAMQHVLDSIFTSSHGSRRKASKVMVVLTDGGIFEDPLNLTTVINSPKMQGVERFAIGVGEEFKSARTARELNLIASDPDETHAFKVTNYMALDGLLSKLRYNIISMEGTVGDALHYQLAQIGFSAQILDERQVLLGAVGAFDWSGGALLYDTRSRRGRFLNQTAAAAADAEAAQYSYLGYAVAVLHKTCSLSYIAGAPRYKHHGAVFELQKEGREASFLPVLEGEQMGSYFGSELCPVDIDMDGSTDFLLVAAPFYHVHGEEGRVYVYRLSEQDGSFSLARILSGHPGFTNARFGFAMAAMGDLSQDKLTDVAIGAPLEGFGADDGASFGSVYIYNGHWDGLSASPSQRIRASTVAPGLQYFGMSMAGGFDISGDGLADITVGTLGQAVVFRSRPVVRLKVSMAFTPSALPIGFNGVVNVRLCFEISSVTTASESGLREALLNFTLDVDVGKQRRRLQCSDVRSCLGCLREWSSGSQLCEDLLLMPTEGELCEEDCFSNASVKVSYQLQTPEGQTDHPQPILDRYTEPFAIFQLPYEKACKNKLFCVAELQLATTVSQQELVVGLTKELTLNINLTNSGEDSYMTSMALNYPRNLQLKRMQKPPSPNIQCDDPQPVASVLIMNCRIGHPVLKRSSAHVSVVWQLEENAFPNRTADITVTVTNSNERRSLANETHTLQFRHGFVAVLSKPSIMYVNTGQGLSHHKEFLFHVHGENLFGAEYQLQICVPTKLRGLQVVAVKKLTRTQASTVCTWSQERACAYSSVQHVEEWHSVSCVIASDKENVTVAAEISWDHSEELLKDVTELQILGEISFNKSLYEGLNAENHRTKITVVFLKDEKYH
chain 2: ELDAKIPSTGDATEWRNPHLSMLGSCQPAPSCQKCILSHPSCAWCKQLNFTASGEAEARRCARREELLARGCPLEELEEPRGQQEVLQDQPLSQGARGEGATQLAPQRVRVTLRPGEPQQLQVRFLRAEGYPVDLYYLMDLSYSMKDDLERVRQLGHALLVRLQEVTHSVRIGFGSFVDKTVLPFVSTVPSKLRHPCPTRLERCQSPFSFHHVLSLTGDAQAFEREVGRQSVSGNLDSPEGGFDAILQAALCQEQIGWRNVSRLLVFTSDDTFHTAGDGKLGGIFMPSDGHCHLDSNGLYSRSTEFDYPSVGQVAQALSAANIQPIFAVTSAALPVYQELSKLIPKSAVGELSEDSSNVVQLIMDAYNSLSSTVTLEHSSLPPGVHISYESQCEGPEKREGKAEDRGQCNHVRINQTVTFWVSLQATHCLPEPHLLRLRALGFSEELIVELHTLCDCNCSDTQPQAPHCSDGQGHLQCGVCSCAPGRLGRLCECSVAELSSPDLESGCRAPNGTGPLCSGKGHCQCGRCSCSGQSSGHLCECDDASCERHEGILCGGFGRCQCGVCHCHANRTGRACECSGDMDSCISPEGGLCSGHGRCKCNRCQCLDGYYGALCDQCPGCKTPCERHRDCAECGAFRTGPLATNCSTACAHTNVTLALAPILDDGWCKERTLDNQLFFFLVEDDARGTVVLRVRPQEKGADH
modifications: Wild-type αE taken for BLI: the paper assigns wild-type to the E-cadherin complex and RRtoGG (R177G/R178G) only to the Fab complex; the BLI section does not state which was used. Signal peptides …
Take B1: in test [2], the Kd (as a rule, the constant that tells how readily two partners part at equilibrium) was 51 ± 7.9 nM.
